Experimental data: the nanobody polyreactivity screen of Harvey et al. (2022)

Assay: yeast display, Sf9 membrane polyspecificity reagent, FACS + sequencing; frameworks hold sequencing errors
Method in brief: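 In a synthetic yeast display library (Saccharomyces cerevisiae BJ5465), nanobody expression was induced with galactose for 36–48 hours. FACS gates were set low and high (top ~1%) using anti-HA fluorescence for expression and streptavidin fluorescence for binding of the Sf9 membrane reagent. Each polyreactivity label is drawn from the gate of origin.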

| Sequence | polyreactivity (PSR sort gate) |
| --- | --- |
| QVQLLESGGGLVKAGGSLRLSCAPYGSIFYGYAMGWYRPAPGKERELVAAITRSGGSTYYADSVKGRFTITRFNAKNTVYLQMNSLKPEDTAVYYCAAGWRSVSVRYYGPSDYWGQGTQVTVSS | low polyreactivity |
| QVQLLESGGGLVLAGGSLRLSCAASGFIIRPYAIGWYRQAPGKERELVAAITYSSGSTYYADSVKGRFTISRDNAKYTVYLEMNSLKPEDTAVYYCNAEFWYETLYEYDYWGQGTQLTVSS | high polyreactivity |
| QVQLLESGGGLVPAGGSLRLSCAASGYIFHRYAMGWSRQAPGKERELVAAITWTGARTYYADSVKGRFTISRDNAKNTVYLQMNSLKPEDTAVYYAGPASYSFAKSGYWGQGTQVTVSS | high polyreactivity |
| QVQLLESGGGLVQAGGSHRLSCAASGRIFGSNAMGWYRQAPGKERELVAAITRGGSTNYADSVKGRFTISLDNAKNTVYLQMNSLKPEDTAVYYCAVRWYRKYNYWGQGTQVTVSS | high polyreactivity |
| QVQLLESGGGLVQAGGSLRITCAASGFTFAVYAMGWYRQAPGKERELVAAISRSGTRTYYADSVKGRFTISRDNAKNTVYLLMNSLKPEDTAVYYCAADKYRHGYDYWGQGTQVTVSS | low polyreactivity |
| QVQLLESGGGLVQAGGSLRLRCAASGSIFISYAMGWYRQAPGKERELVAAISIRGTRTYYADSVKGRFTISRDNAKNTVYLHMNCLKPEDTAVYYCAADASYTEGMDYWGQGTQGTVSS | high polyreactivity |
| QVQLLESGGGLVQAGGSLRLSCAAAGIIFGYYTMGWYRQAPGNERELVAAITTTGGSTYYADSVKGRCTISRDNAKNTVYLQMNSLKPEDTAVYYCAARKWSHRTISDYWGQGTQVTVSS | high polyreactivity |
| QVQLLESGGGLVQAGGSLRLSCAASGAIFFIYVMGWYRQAPGKERELVAAISGSGGPTYYADSVKVRFTISRDNAKNTVFLQMNRLKPEDTAVYYCAARGYRGRMGYWGQGTQVTVSS | low polyreactivity |
| QVQLLESGGGLVQAGGSLRLSCAASGFNFYYYAMGWYRQAPGKERELVAAISKSGGSTHYADSVKGRFTISRDNAKHTVYLQMNSLKPEDTAVYYCAARYILSKYGSGVRYNYWGQGTQVTVSS | high polyreactivity |
| QVQLLESGGGLVQAGGSLRLSCAASGFTFLQYAMGWYRQAPGKERELVAAISWSGSRTYYADSVKGRFTISRDNAKNTVYLQMNSLKPEETAVYYCAAVYGGLTLTRNYYWGQGTQVTVSS | high polyreactivity |
| QVQLLESGGGLVQAGGSLRLSCAASGFTFYLYTMGWYRQATGKERELVAAISRSGDRTYYADSVKGRFTISRDNAKNNVYLQMNSLKPEDTAVYYCAARSYRPTRGDYWGQGTQVTVST | high polyreactivity |
| QVQLLESGGGLVQAGGSLRLSCAASGLTYYYAMGWYRQAPGKERELVAAISYSGGRTNYADSVKGRFTISRDNAKNTVYLQMNSLKPEDTAVYFCAAVGPRTDYSGYRYYYWVQGTQVTVSS | high polyreactivity |
| QVQLLESGGGLVQAGGSLRLSCAASGRIFDYYAMGWYRQAPGKERELVAAISDSGDSTYYADSVKGRFTISRDNAKNTVYLQMNRLKPVDTAVYYCAAQGGWIPAQDVRSSWGYNYWGQGTQVSVSS | high polyreactivity |
| QVQLLESGGGLVQAGGSLRLSCAASGRIFGVNAMGWYRQAPGKERELVAAISAGGGNTYYADSVKGRFTISRDNAKNSVYLQMNSLKPEDTAVYYCNVQRSLRMDYWGQGTQVTVSS | high polyreactivity |
| QVQLLESGGGLVQAGGSLRLSCAASGRIFHYNAMGWYRQAPGKERELVAAITRRGTSTYYADSVKGRFTISRDNAKNTVYLQMNSLKPEDTAVYYCNTDTYYRLLDYWGQGTQVTVSS | low polyreactivity |
| QVQLLESGGGLVQAGGSLRLSCAASGRILTGYAMGWYRQAPGKERELVASINWRGGSTYYADSVKRRFTISRDNAKNTVYLQLNSLKPEDTAVYYCAARVRVTGTYYTKYDYWGQGTQVTVSS | high polyreactivity |
| QVQLLESGGGLVQAGGSLRLSCAASGRTFAYNAMAWDRQAPGTERELVADITSGGSTYYADSVKGRFTISRDNAKNTVYLQMNSRKPEDTAVYYCAGYPQFWYWDYNYWGQGTQVTVSS | high polyreactivity |
| QVQLLESGGGLVQAGGSLRLSCAASGRTFEYYAMGWYRQAPGKERELDAAITSGGITYYADSVKGRFTISRDNAKITVYLQMNSLKPEDSAVYYCAAKGWYFGYGRYGYWGQGTQVTVSS | high polyreactivity |
| QVQLLESGGGLVQAGGSLRLSCAASGRTFSGYAMGWYRQAPGKERELVAAISESGDGTYYADSVKGRFTISRDNAKNTVYLQMNSLKPEDTAVYYCAADGTLFSEYYWFFGYHDYWGQGTQVTVSS | high polyreactivity |
| QVQLLESGGGLVQAGGSLRLSCAASGRTFTYYAMGWYRQAPGKERELVASISTTGRTYYADSVKGRFTISRDNAKNTVYLQMNSLKPDDTAVYYCATRSRYYYDYWGQGTQVTVSS | high polyreactivity |
| QVQLLESGGGLVQAGGSLRLSCAASGSIFEGNGMGWYRQAPGKERELVAAITFRSGSTYYADSVKGRFTISRDNAKNTVYLQMNSLKPEDTAVYYCAADEYYEVSAYDYWGQGTQVTVSS | low polyreactivity |
| QVQLLESGGGLVQAGGSLRLSCAASGSIFGGYSMGWYRQAPGKERELVAAISWSGASTYYADSVKGRFTISRDNATTTVSLQMNSLKPEDTAVYSCAARSRVDLARSGYWGQGCQVTVSS | low polyreactivity |

| Sequence | polyreactivity (PSR sort gate) |
| --- | --- |
| QVQLLESGGGLVQAGGSLRLSCAASGSIFGRYVMGWYRQAPGKERELVPRITQSGGSTYYADSVKGRFTISRDNAKNTVYLQMNSLKPEDTAVYYCNVARWGNIPVGEYDYWGQGTQVTVSS | high polyreactivity |
| QVQLLESGGGLVQAGGSLRLSCAASGSIFYLYAMGWYIQAPGKERELVAVIRRGGSTKYADSVKGRFTISRDNSKNSVYLQMNSLKPEDTAVYDCNVVGYAYGWQYDYWGQGTQVNVSS | high polyreactivity |
| QVQLLESGGGLVQAGGSLRLSCAASGSIFYPYALGWYRQAPGKERELVAGISRSGASTYYADSVKGRFTISRDKAKNTVYLQMNSLKPEDTAVYYCAADDWTRNYWGQGTQVTVSS | low polyreactivity |
| QVQLLESGGGLVQAGGSLRLSCAASGSIINRYAMGLYRQAPGKERELVAAISWRGGSTYYADSVKGRFTISRDNAKNTVYLQMNSLKPEDTAVYYCNKVSYVKSGYWGQGTQVTVSS | high polyreactivity |
| QVQLLESGGGLVQAGGSLRLSCAASGSTFDDYAMGWYRQAPGKEREFVAAIDWSGGSTYYADSVKGRFTISRDNAKNTVYLQMNSLKPEDTAVYYCNADPDGSFDYWGQGTQVTVSS | low polyreactivity |
| QVQLLESGGGLVQAGGSLRLSCAASGSTFDIYTMGWYRQAPGKERELVAAISRSGTRTYYADSVKGRFTISRDNAKNTVYLQMNSLKPEDTAVYYCNAVQQYYGTWGYGYWGQGTQVTVSS | high polyreactivity |
| QVQLLESGGGLVQAGGSLRLSCAASGSTFLIYAMGWYRQAPGKERELVASINLNTGRTSYADSVKGRFTISRDNAKNTVYLQMNSLKPEDTAVYYCAAELWVRFRGVKEYDYWGQGTQVSVSS | high polyreactivity |
| QVQLLESGGGLVQAGGSLRLSCAASGSTFQAYAMGWYRQAPGKERELVAAISVSDGITYYADSVKGRFTISRDNAKNTVYLQMNSLKPEDTAVYYCAAEISLSRSDRIESYDYWGQGTQVTVSS | low polyreactivity |
| QVQLLESGGGLVQAGGSLRLSCAASGSTFVGYAMGWYRQAPGKERELVAAISGSGTSTYYADSVKGRFTISRDNAKNTVYLQMNSLKPEDTAVYYCNADPIFVYSSYNYWGQGTQVTVSS | low polyreactivity |
| QVQLLESGGGLVQAGGSLRLSCAASGSTFWPNAMGWYRQAPGKERELVAAITGGGGTNYADSVKGRFTISRDNAKNTVYLQMNSLKPEDTAVYYCAAKKVNSRSHVKYYYWGQGTQVTVSS | high polyreactivity |
| QVQLLESGGGLVQAGGSLRLSCAASGTSAQEDWMGWYRQAPGKEREFVAAIGLGSHTNYADSLKGRFTISRDNAKNTVYLHMNSLKPEDTAVYYCAVSVWQYSDHVYRGQGTQVTVSS | low polyreactivity |
| QVQLLESGGGLVQAGGSLRLSCAAYGFIFVSNGMGWYRQAPGKEREFVASITSIGGSTYYADSVKGRFTISRDNAKNTVYLQMNSLKPEDTAVYYCAARDIALNAVGRPKEYNRDYWGQGTQVTVSS | low polyreactivity |
| QVQLLESGGGLVQAGGSLRLSCASSGRTFRQYVMVWYRQAPGKESELVAAITYSGGSTYFADSVKGRFTISRDNAKYSVYLQMNSLTPEDTAVYYCAARNGYCVGYWGQGTQVTVSS | high polyreactivity |
| QVQLLESGGGLVQAGGSLRLSCASSGSIFHTYAMGWYRPAPGKERELVAAISSGGRTYYADSVKGRFTISRDNAKNTVYLQMNSLKPEDTAVYYCAVRPRPGYYYWGQGTQVTVSS | high polyreactivity |
| QVQLLESGGGLVQAGRSLRLSCAASGRTFRIYAMGWYRQAPGKEREEVAAITRSSGSTFYADSVKGRFTISRDNAKNTVYLQMNSLKPEDTAVYYCAAEYFEWWVTYDYWGQGTQVTVSS | high polyreactivity |
| QVQLLESGGGLVQAGVSLRLRCAPSGGTHKYYTMALYRQAPGKERELDATIRWYGDSTSYADSVKGRFTISRDNAKNTVYLQMNSQNPEDTAVYSCNADYAWYQRKSTVEYDYWVQGTQVTVSS | low polyreactivity |
| QVQLLESGGRLVQAGGSLRLSCAASGFTFGVNAMGWYRQAPGKERELVAAITSRGGSTYYADSVKGRFTISRDNAKNTVYLQMNSLKPEDTAVYYCAALGRGYFYGYRYDHWGQGTQVSVSS | high polyreactivity |
| QVQLLESGVGLVQAGGSLRLSSAASGRNFQQNAMAWYRQAPGKERELVAAINSRGGRTYYADSVKGRFTISRDNAKNTVYLQMNSLKPEDTAVYYCGAYFRNYRSYYYWGQGTQVTVSS | high polyreactivity |
| QVQLLESRGGLVQAGGSLRLSCAASGSIFYIYAIGWYRQAPGKEREFVAAIRQSDGRTYYADSVKGRFTISRDNAKNTVYLQRTSLNPEDTAVYYCAAQYPVNYIWGYNDWGQGTQVTVSS | high polyreactivity |
| QVQLLESVGGLVQAGGSLRISCAASGIIFKSYAMGWYRQAPGKERELVAAISSGGSTYYVDSVKGRFTISRDNAKNTVYLQMNSLKPEDTAVYYCAAYGKYQGYGHWGQGTQVTVSS | high polyreactivity |
| QVQLLESVGGLVQAGGSLRLSSMASGSILGDRMSWYRHAPGKEHELVATIYDGGITYYADSMKGRFTISRDNAKNTVYLQMNSLRPEDSAVYYCGASFEGYRYHVYCGQGTQVTVSS | low polyreactivity |
